According to patent US20140193400A1 (ESBATECH AN ALCON BIOMEDICAL RESEARCH UNIT, published 2014):
“And” between values parts separate entries of the source, which are not always exact repeats. Equal entries are not always repeated. Where two headings read alike, the source gives them in different places.

Experiments:
[1] = molecular target: T1, Human TNFa N-his trimers (His-tagged TNF, produced at ESBATech) (human, UniProt P01375 77-233); test: SPR (BIAcore T100), His-tagged human TNF captured on NTA chip, scFv as analyte
T1 construct: Captured as trimers on a Ni-NTA sensor chip by the N-terminal His tags in the Biacore assay of the general methods; also called human TNFα; human TNF alpha; not shown: N-terminal His tag
T1 sequence (P01375 77-233 limits assumed): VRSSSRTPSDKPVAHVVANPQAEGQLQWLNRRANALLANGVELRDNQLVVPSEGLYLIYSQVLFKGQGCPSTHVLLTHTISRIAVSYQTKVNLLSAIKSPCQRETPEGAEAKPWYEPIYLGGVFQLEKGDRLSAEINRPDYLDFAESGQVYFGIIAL
Description: (§1) For binding affinity measurements at pH5 and pH 7.4 (data not shown), surface Plasmon resonance measurements with BIAcore™-T 100 were employed using a NTA sensor chip and His-tagged TNF (produced at ESBATech). The surface of the NTA sensor chip consists of a carboxymethylated dextran matrix pre-immobilized with nitrilotriacetic acid (NTA) for capture of histidine tagged molecules via Ni2+NTA chelation. Human TNFa N-his trimers (5 nM) are captured by the nickel via their N-terminal his-tags and ESBA105 (analyte) is injected at several concentrations ranging from 30 nM to 0.014 nM in 3 fold serial dilution steps. At the regeneration step, the complex formed by nickel, ligand and analyte is washed away. This allows the use of the same regeneration conditions for different samples. The response signal is generated by surface Plasmon resonance (SPR) technology and measured in resonance units (RU). All the measurements are performed at 25° C. Sensorgrams were generated for each anti-TNF scFv sample after in-line reference cell correction followed by buffer sample subtraction. The apparent dissociation rate constant (kd), the apparent association rate constant (kₐ) and the apparent dissociation equilibrium constant (KD) were calculated using one-to-one Langmuir binding model with BIAcore T100 evaluation Software version 1.1.

[2] = molecular target: T2, recombinant human TNFalpha (human, UniProt P01375 77-233); test: cell-based or functional assay
T2 sequence (P01375 77-233 limits assumed): as above

[3] = molecular target: T2, recombinant human TNFalpha; test: cell-based or functional assay; remark: listed apart in the source
[4] = molecular target: T2, recombinant human TNFalpha; test: cell-based or functional assay; remark: listed apart in the source
[5] = molecular target: T1, Human TNFa N-his trimers (His-tagged …); test: SPR (BIAcore), His-tagged human TNF captured on NTA chip, scFv as analyte; units taken from paragraph 184
Description: as §1

| Binder | Kd [1] [nM] | koff [1] [s⁻¹] | kon [1] [M⁻¹ s⁻¹] | L929* [EC50-E105/EC50-X], potency relative to ESBA105 [2] | other results |
| --- | --- | --- | --- | --- | --- |
| EP15_max (scFv, scFv NH2-VL-(GGGGS)4-VH-COOH; also called 1074) scFv: EIVMTQSPSTLSASVGDRVIITCQASENIYTSLAWYQQKPGKAPKLLIYSASTLASGVPSRFSGSGSGTEFTLTISSLQPDDFATYYCQQGFATSNVENPFGQGTKLTVLGGGGGSGGGGSGGGGSGGGGSEVQLVESGGGSVQPGGSLRLSCTVSGFSLSRYGVSWVRQAPGKGLEWVGAIGETGRAYYANWAKSRSTISRDTSKNTVYLQMNSLRAEDTATYYCARGEEFNNGWGAFNIWGQGTTVTVSS | 1.48 | 0.00226 | 1.53e+06 | 0.39 ratio EC50 ESBA105/EC50 X (mass units, ng/ml) | – |
| ESBA105 (scFv) MADIVMTQSPSSLSASVGDRVTLTCTASQSVSNDVVWYQQRPGKAPKLLIYSAFNRYTGVPSRFSGRGYGTDFTLTISSLQPEDVAVYYCQQDYNSPRTFGQGTKLEVKRGGGGSGGGGSGGGGSSGGGSQVQLVQSGAEVKKPGASVKVSCTASGYTFTHYGMNWVRQAPGKGLEWMGWINTYTGEPTYADKFKDRFTFSLETSASTVYMELTSLTSDDTAVYYCARERGDAMDYWGQGTLVTVSS | – | – | – | – | EC50, L929 potency assay [3]: 6.5 ng/mL |
| EP34_max (scFv, scFv NH2-VL-(GGGGS)4-VH-COOH; also called Epi34max; 791) scFv: EIVMTQSPSTLSASLGDRVIITCQSSQSVYGNIWMAWYQQKSGKAPKLLIYQASKLASGVPSRFSGSGSGAEFSLTISSLQPDDFATYYCQGNFNTGDRYAFGQGTKLTVLGGGGGSGGGGSGGGGSGGGGSEVQLVESGGGLVQPGGSLRLSCTASGFTISRSYWICWVRQAPGKGLEWVACIYGDNDITPLYANWAKGRFPVSTDTSKNTVYLQMNSLRAEDTAVYYCARLGYADYAYDLWGQGTLVTVSS | 0.0286 | 1.68e-05 | 586000 | 10.5 ratio EC50 ESBA105/EC50 X (mass units, ng/ml) | IC50, block of cytotoxic activity (human Kym-1 cells, 10 pg/ml TNF) [3]: 0.69 ng/mL and 0.63 ng/mL; IC50, block of cytotoxic activity (murine L929 cells, 1000 pg/ml TNF) [3]: 1.03 ng/mL and 1.04 ng/mL |
| EP43_maxDHP (scFv) scFv: EIVMTQSPSTLSASVGDRVIIKCQASQSISDWLAWYQQKPGKAPKLLIYGASRLASGFPSRFSGSGSGAEFTLTISGLEPADFATYYCQQGWSDSYVDNLFGQGTKLTVLGGGGGSGGGGSGGGGSGGGGSEVQLVESGGGSVQPGGSLRLSCTVSGFSLSSGAMSWVRQAPGKGLEWVGVIISSGATYYASWAKGRFTISKDTSKNTVYLQMNSLRAEDTATYYCARGGPDDSNSMGTFDPWGQGTSVTVSS | – | – | – | – | L929* [EC50-E105/EC50-X], potency relative to ESBA105 [4]: 6.7 ratio EC50 ESBA105/EC50 X (mass units, ng/ml); Kd [5]: 0.116 nM; koff [5]: 2.73e-05 s⁻¹; kon [5]: 235000 M⁻¹ s⁻¹ |
| EP43_maxmin (scFv, also called 959) scFv: EIVMTQSPSTLSASVGDRVIIKCQASQSISDWLAWYQQKPGKAPKLLIYGASRLASGFPSRFSGSGSGAEFTLTISGLEPADFATYYCQQGWSDSYVDNLFGQGTKLTVLGGGGGSGGGGSGGGGSGGGGSEVQLVESGGGLVQPGGSLRLSCAASGFSLSSGAMSWVRQAPGKGLEWVSVIISSGATYYASWAKGRFTISRDNSKNTLYLQMNSLRAEDTAVYYCAKGGPDDSNSMGTFDPWGQGTLVTVSS | – | – | – | – | Kd [5]: 36.6 nM; koff [5]: 0.00533 s⁻¹; kon [5]: 146000 M⁻¹ s⁻¹ |
| EP43_minmax (scFv, Min graft VL with max graft VH; also called 958) scFv: EIVMTQSPSTLSASVGDRVIITCQASQSISDWLAWYQQKPGKAPKLLIYGASRLASGVPSRFSGSGSGAEFTLTISSLQPDDFATYYCQQGWSDSYVDNLFGQGTKLTVLGGGGGSGGGGSGGGGSGGGGSEVQLVESGGGLVQPGGSLRLSCTVSGFSLSSGAMSWVRQAPGKGLEWVGVIISSGATYYASWAKGRFTISKDTSKNTVYLQMNSLRAEDTAVYYCARGGPDDSNSMGTFDPWGQGTLVTVSS | – | – | – | – | L929* [EC50-E105/EC50-X], potency relative to ESBA105 [4]: 1.6 ratio EC50 ESBA105/EC50 X (mass units, ng/ml); Kd [5]: 0.868 nM; koff [5]: 0.000198 s⁻¹; kon [5]: 228000 M⁻¹ s⁻¹ |
| EP1_max (scFv, scFv NH2-VL-(GGGGS)4-VH-COOH; also called 1072) scFv: EIVMTQSPSTLSASVGDRVIITCQSTESVYKNNYLAWYQQKPGKAPKLLIYDASTLASGVPSRFSGSGSGTEFTLTISSLQPDDFATYYCAGYYRSGSGTANGSFGQGTKLTVLGGGGGSGGGGSGGGGSGGGGSEVQLVESGGGSVQPGGSLRLSCTVSGIDLSNDAISWVRQAPGKGLEWVAYISDWSIRYYANWAQGRFTISKDTSKNTVYLQMNSLRAEDTATYYCARGAPGAGDNGIWGQGTTVTVSS | 56.9 | 0.00063 | 11100 | – | – |
| EP42_max (scFv, scFv NH2-VL-(GGGGS)4-VH-COOH; also called 1077) scFv: EIVMTQSPSTLSASVGDRVIITCQSTESVYKNNYLAWYQQKPGKAPKLLIYDASTLASGVPSRFSGSGSGTEFTLTISSLQPDDFATYYCAGYYRSGFGTANGSFGQGTKLTVLGGGGGSGGGGSGGGGSGGGGSEVQLVESGGGSVQPGGSLRLSCTVSGIDLRNDAISWVRQAPGKGLEWVSYISDWGIKYYASWVKGRFTISKDTSKNTVYLQMNSLRAEDTATYYCARGAPGAGDNGIWGQGTTVTVSS | 3.46 | 0.000419 | 121000 | – | – |
| EP6_min (scFv, scFv NH2-VL-(GGGGS)4-VH-COOH; also called 673) scFv: EIVMTQSPSTLSASVGDRVIITCQASESIYSGLAWYQQKPGKAPKLLIYQASTLASGVPSRFSGSGSGAEFTLTISSLQPDDFATYYCQQGFGTSNVENPFGQGTKLTVLGGGGGSGGGGSGGGGSGGGGSEVQLVESGGGLVQPGGSLRLSCAASGFSLSRYGVSWVRQAPGKGLEWVSTIGEAGRAYYANWARSRFTISRDNSKNTLYLQMNSLRAEDTAVYYCAKGEVFNNGWGAFNIWGQGTLVTVSS | 106 | 0.00494 | 46700 | – | – |
| EP6_max (scFv, scFv NH2-VL-(GGGGS)4-VH-COOH; also called 674) scFv: EIVMTQSPSTLSASVGDRVIITCQASESIYSGLAWYQQKPGKAPKLLIYQASTLASGVPSRFSGSGSGTDFTLAISSLQPDDFATYYCQQGFGTSNVENPFGQGTKLTVLGGGGGSGGGGSGGGGSGGGGSEVQLVESGGGLVQPGGSLRLSCTVSGFSLSRYGVSWVRQAPGKGLEWVGTIGEAGRAYYANWARSRSTISRDTSKNTVYLQMNSLRAEDTAVYYCARGEVFNNGWGAFNIWGQGTLVTVSS | 0.512 | 0.000145 | 284000 | 1.1 ratio EC50 ESBA105/EC50 X (mass units, ng/ml) | – |

Now from value to binder, other results behind:

| Kd [1] [nM] | koff [1] [s⁻¹] | kon [1] [M⁻¹ s⁻¹] | L929* [EC50-E105/EC50-X], potency relative to ESBA105 [2] | Binder | other results |
| --- | --- | --- | --- | --- | --- |
| 2.91 | 6.54e-05 | 22500 | 0.6 ratio EC50 ESBA105/EC50 X (mass units, ng/ml) | EP19_max (scFv, also called 1007; EP19maxmod) scFv: EIVMTQSPSTLSASVGDRVIITCQASDNIYRGLAWYQQKPGKAPKLLIYDASTLQSGVPSRFSGSGSGTQFTLTISSLQPDDFATYYCLGVYGYSSDDGAAFGQGTKLTVLGGGGGSGGGGSGGGGSGGGGSEVQLVESGGGLVQPGGSLRLSCTVSGFSLNSNEISWVRQAPGKGLEWVGYIGNGGMTHYASWAKGRFTISRDTSKNTVYLQMNSLRAEDTAVYYCASSVEYTDLYYLNIWGQGTLVTVSS | – |
| 0.194 | 0.00015 | 772000 | 5.2 ratio EC50 ESBA105/EC50 X (mass units, ng/ml) | EP35_max (scFv, scFv NH2-VL-(GGGGS)4-VH-COOH; also called 1089) scFv: EIVMTQSPSTLSASVGDRVIITCQASQSISNLLAWYQQKPGKAPKLLIVAASKLASGVPSRFSGSGSGTEFTLTISSLQPDDFATYYCQQGWSHTNVDNTFGQGTKLTVLGGGGGSGGGGSGGGGSGGGGSEVQLVESGGGSVQPGGSLRLSCTASGFSFSVGYWICWVRQAPGKGLEWVACIDAGTSGGTYYATWAKGRFTISKDTSKNTVYLQMNSLRAEDTATYYCARGVSSNGYYFKLWGQGTTVTVSS | – |
| 5540 | 0.0298 | 5380 | – | EP43_min (scFv, scFv NH2-VL-(GGGGS)4-VH-COOH; also called 705) scFv: EIVMTQSPSTLSASVGDRVIITCQASQSISDWLAWYQQKPGKAPKLLIYGASRLASGVPSRFSGSGSGAEFTLTISSLQPDDFATYYCQQGWSDSYVDNLFGQGTKLTVLGGGGGSGGGGSGGGGSGGGGSEVQLVESGGGLVQPGGSLRLSCAASGFSLSSGAMSWVRQAPGKGLEWVSVIISSGATYYASWAKGRFTISRDNSKNTLYLQMNSLRAEDTAVYYCAKGGPDDSNSMGTFDPWGQGTLVTVSS | – |
| 262 | 0.041 | 157000 | – | EP15_min (scFv, scFv NH2-VL-(GGGGS)4-VH-COOH; also called 1073) scFv: EIVMTQSPSTLSASVGDRVIITCQASENIYTSLAWYQQKPGKAPKLLIYSASTLASGVPSRFSGSGSGAEFTLTISSLQPDDFATYYCQQGFATSNVENPFGQGTKLTVLGGGGGSGGGGSGGGGSGGGGSEVQLVESGGGLVQPGGSLRLSCAASGFTFSRYGVSWVRQAPGKGLEWVSAIGETGRAYYANWAKSRFTISRDNSKNTLYLQMNSLRAEDTAVYYCAKGEEFNNGWGAFNIWGQGTLVTVSS | – |
| 58.7 | 0.00835 | 142000 | – | EP42_min (scFv, scFv NH2-VL-(GGGGS)4-VH-COOH; also called 1076) scFv: EIVMTQSPSTLSASVGDRVIITCQSTESVYKNNYLAWYQQKPGKAPKLLIYDASTLASGVPSRFSGSGSGAEFTLTISSLQPDDFATYYCAGYYRSGFGTANGSFGQGTKLTVLGGGGGSGGGGSGGGGSGGGGSEVQLVESGGGLVQPGGSLRLSCAASGFTFRNDAISWVRQAPGKGLEWVSYISDWGIKYYASWVKGRFTISRDNSKNTLYLQMNSLRAEDTAVYYCAKGAPGAGDNGIWGQGTLVTVSS | – |
